6 molecules from US20100280227A1 (Genentech, published 2010) can be followed below.

As a reminder, the Kd is the equilibrium constant for the complex coming apart. Read a low Kd as higher affinity. For orientation: koff means a measure of how fast the partners let go of each other. A higher koff goes with a short-lived complex. In general, kon refers to a measure of how fast the partners come together. Lower therefore signals slower complex formation. One may read the EC50 (read off the curve) as the concentration that produces a half-maximal response. Lower therefore signals an effect from little substance. By IC50 is commonly meant the concentration needed to halve the response being measured.

Several values for one entry are separate records, joined by “and”; a condition that tells them apart may be missing. Equal values may be shown once. Read-outs that look alike come from different tables or passages of the source.

The target in experiment [1] is T1, human BR3 extracellular domain (human, UniProt Q96RJ3 1-61).
T1 construct: biotinylated where used as tracer; also called hBR3-ECD; BR3-ECD
Put plainly: SPR with Fab.

Experiment [2] concerns the target T1, human BR3 extracellular domain. Put plainly: SPR, BR3 ECD on chip. (In general: In SPR one partner is held on a chip, and binding of the other changes the refractive index at the surface.)
Experiment [3] concerns the target T2, variant human BR3-Fc fusion.
T2 construct: produced in CHO cells; also called vBR3-Fc; vhBR3-Fc
Put plainly: SPR, vBR3-Fc on chip.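 Note: Anti-BR3 antibodies passed over chip-bound BR3-Fc in PBS with 0.05% polysorbate 20, on and off rates fitted together globally to a 1:1 binding model.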

Experiment [4] deals with T1, human BR3 extracellular domain. Put plainly: BIAcore, Fab over immobilised target.
Experiment [5] deals with T2, variant human BR3-Fc fusion. Put plainly: BIAcore, Fab over immobilised target.
Experiment [6] has as its target T3, human FcRn (human, UniProt P55899 24-297; P61769 21-119, limits assumed).
T3 construct: construct not described; also called huFcRn
Nature of the experiment: SPR, FcRn on chip, kinetic, pH 6.

In experiment [7] the target is T4, cynomolgus FcRn (cynomolgus monkey, UniProt Q8SPV9 24-297; Q8SPW0 21-119, limits assumed).
T4 construct: construct not described; also called cynoFcRn; cyno FcRn
Put plainly: SPR, FcRn on chip, kinetic, pH 6.

Experiment [8] has as its target T3, human FcRn. Put plainly: SPR, FcRn on chip, kinetic, pH 6.0 (KDa).
Experiment [9] addresses T4, cynomolgus FcRn. Nature of the experiment: SPR, FcRn on chip, kinetic, pH 6.0 (KDa).
The target of experiment [10] is T3, human FcRn. Put plainly: SPR, FcRn on chip, equilibrium, pH 6.0 (KDb).
Experiment [11] has as its target T4, cynomolgus FcRn. Nature of the experiment: SPR, FcRn on chip, equilibrium, pH 6.0 (KDb).
The target in experiment [12] is T5, human FcγRI extracellular domain, His-tagged GST fusion (human, UniProt P12314 16-292).
T5 construct: extracellular domain; also called hFcgRI; Human I
Nature of the experiment: ELISA, captured FcgR-GST; A450 ratio to 9.1RF.

Experiment [13] addresses T6, human FcγRIIa extracellular domain, His-tagged GST fusion (human, UniProt P12318 34-217).
T6 construct: extracellular domain; also called hFcgRIIa; Human IIa
T6 sequence (looked up): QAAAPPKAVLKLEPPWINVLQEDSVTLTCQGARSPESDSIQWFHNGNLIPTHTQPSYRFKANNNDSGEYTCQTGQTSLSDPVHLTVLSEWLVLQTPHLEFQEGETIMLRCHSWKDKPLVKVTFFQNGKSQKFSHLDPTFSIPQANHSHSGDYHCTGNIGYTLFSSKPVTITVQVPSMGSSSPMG
Nature of the experiment: ELISA, captured FcgR-GST; A450 ratio to 9.1RF.

Experiment [14] concerns the target T7, human FcγRIIb extracellular domain, His-tagged GST fusion (human, UniProt P31994 43-217).
T7 construct: extracellular domain; also called hFcgRIIb; Human IIb
T7 sequence (looked up): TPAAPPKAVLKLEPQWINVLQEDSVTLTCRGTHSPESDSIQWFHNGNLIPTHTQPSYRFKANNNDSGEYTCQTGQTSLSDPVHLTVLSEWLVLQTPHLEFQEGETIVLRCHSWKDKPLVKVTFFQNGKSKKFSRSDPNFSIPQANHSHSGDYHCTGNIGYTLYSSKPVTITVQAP
Nature of the experiment: ELISA, captured FcgR-GST; A450 ratio to 9.1RF. A general note: ELISA stands for enzyme-linked immunosorbent assay.

Experiment [15] has as its target T5, human FcγRI extracellular domain, …. Nature of the experiment: ELISA, receptor-His-GST captured by anti-GST, uncomplexed IgG.
Experiment [16] deals with T6, human FcγRIIa extracellular domain, …. Put plainly: ELISA, receptor-His-GST captured by anti-GST, IgG complexed with anti-kappa F(ab')2.
The target in experiment [17] is T1, human BR3 extracellular domain. Put plainly: F(ab)'2 phage solution binding competition ELISA.
Experiment [18] concerns the target T8, mouse BR3-Fc (mouse).
T8 construct: (BR3 ECD fused to a murine Fc); also called mBR3-Fc; murine BR3-Fc
T8 chain: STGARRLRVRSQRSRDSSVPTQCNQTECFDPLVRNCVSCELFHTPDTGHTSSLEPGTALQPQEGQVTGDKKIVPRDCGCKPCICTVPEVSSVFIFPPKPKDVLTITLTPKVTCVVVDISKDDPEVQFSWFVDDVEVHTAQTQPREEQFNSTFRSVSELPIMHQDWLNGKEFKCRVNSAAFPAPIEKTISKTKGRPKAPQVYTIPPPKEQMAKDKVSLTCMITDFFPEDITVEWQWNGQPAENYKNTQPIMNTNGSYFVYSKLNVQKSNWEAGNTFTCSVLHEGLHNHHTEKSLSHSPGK
Put plainly: F(ab)'2 phage solution binding competition ELISA.

The target in experiment [19] is T9, mouse BR3 extracellular domain (mouse, UniProt Q9D8D0 1-64).
T9 construct: also called mBR3-ECD; mBR-ECD
T9 sequence: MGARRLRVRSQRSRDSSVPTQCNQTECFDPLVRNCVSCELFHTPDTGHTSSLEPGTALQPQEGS
Put plainly: F(ab)'2 phage solution binding competition ELISA.

The target in experiment [20] is T8, mouse BR3-Fc. Put plainly: BAFF blocking ELISA: F(ab)'2 phage added to coated mBR3-Fc after mBAFF-Flag.

B1: Hu11G9-46 Fab (Fab, V domains shown)
VH: EVQLVESGGGLVQPGGSLRLSCAASGDSITSGYWNWVRQAPGKGLEWVGYISYSGSTYYNPSLKSRFTISRDTSKNTFYLQMNSLRAEDTAVYYCAGLNDLYLYFDVWGQGTLVTVSS
VL: DIQMTQSPSSLSASVGDRVTITCRSSQSLVHSNGNTYLHWYQQKPGKAPKLLIYKVSNRFSGVPSRFSGSGSGTDFTLTISSLQPEDFATYYCSQSTHVPPFTFGQGTKVEIKR
notes: Fab
In the case of B1, the “fold improved affinity relative to the chimeric 11G9 Fab” value in [1] is above 10 fold. Besides, the Kd in experiment [2] was 0.46 nM and 0.652 nM; in experiment [3] it was 1.38 nM and 1.62 nM; in experiment [4], 1.5 nM; in [5] it was 5.4 nM. Besides, the koff is 0.000808 s⁻¹ and 0.000867 s⁻¹ in experiment [2]; 0.000902 s⁻¹ and 0.000808 s⁻¹ in experiment [3]. The kon was 1.76e+06 M⁻¹ s⁻¹ and 1.33e+06 M⁻¹ s⁻¹ in [2]; 660000 M⁻¹ s⁻¹ and 500000 M⁻¹ s⁻¹ in experiment [3].

B2: Hu9.1-70 Fab (Fab, V domains shown)
VH: EVQLVESGGGLVQPGGSLRLSCAASDSPRSGYYISWVRQAPGKGLEWVGFIRDKANGYTTEYNPSVKGRFTISADTSKNTAYLQMNSLRAEDTAVYYCAQVRRALDYWGQGTLVTVSS
VL: DIQMTQSPSSLSASVGDRVTITCKSSQSLLYSSNQNNYLAWYQQKPGKAPKLLIYWASIRDSGVPSRFSGSGSGTDFTLTISSLQPEDFATYYCQQYYTYPYTFGQGTKVEIKR
notes: Fab
Turning to B2, the “fold higher affinity than the chimeric 9.1 Fab” value in [1] is around 2 fold. For the same molecule, the Kd in experiment [2] is 0.13 nM and 0.17 nM; in experiment [3] (220 RU BR3-Fc immobilized), 0.95 nM; in [3] (380 RU BR3-Fc immobilized) it was 0.61 nM; in experiment [4], 0.15 nM; in experiment [5] it was 0.78 nM. Moreover, the koff in experiment [2] is 0.000137 s⁻¹ and 0.000163 s⁻¹; in experiment [3] (220 RU BR3-Fc immobilized), 0.00068 s⁻¹; in experiment [3] (380 RU BR3-Fc immobilized), 0.000392 s⁻¹. The kon was 1.08e+06 M⁻¹ s⁻¹ and 950000 M⁻¹ s⁻¹ in experiment [2]; 720000 M⁻¹ s⁻¹ in [3] (220 RU BR3-Fc immobilized); 640000 M⁻¹ s⁻¹ in experiment [3] (380 RU BR3-Fc immobilized).

B3: Hu9.1-RF Fab (Fab, V domains shown)
VH: EVQLVESGGGLVQPGGSLRLSCAASGFTVTAYYMSWVRQAPGKGLEWVGFIRDKANGYTTEYNPSVKGRFTISRDTSKNTFYLQMNSLRAEDTAVYYCAQVRRALDYWGQGTLVTVSS
VL: DIQMTQSPSSLSASVGDRVTITCKSSQSLLYSSNQNNYLAWYQQKPGKAPKLLIYWASTRESGVPSRFSGSGSGTDFTLTISSLQPEDFATYYCQQYYTYPYTFGQGTKVEIKR
For B3, the “fold higher affinity than the chimeric 9.1 Fab” value in experiment [1] is around 2 fold. Besides, in [2], the Kd was found to be 0.14 nM, the koff worked out at 0.000294 s⁻¹ and the kon stood at 2.02e+06 M⁻¹ s⁻¹. Besides, in [3], the Kd turned out to be 6.4 nM, the koff came to 0.00186 s⁻¹ and the kon was 290000 M⁻¹ s⁻¹.

B4: 9.1RF N434A IgG (antibody)
light: DIQMTQSPSSLSASVGDRVTITCKSSQSLLYSSNQNNYLAWYQQKPGKAPKLLIYWASTRESGVPSRFSGSGSGTDFTLTISSLQPEDFATYYCQQYYTYPYTFGQGTKVEIKRTVAAPSVFIFPPSDEQLKSGTASVVCLLNNFYPREAKVQWKVDNALQSGNSQESVTEQDSKDSTYSLSSTLTLSKADYEKHKVYACEVTHQGLSSPVTKSFNRGEC
heavy: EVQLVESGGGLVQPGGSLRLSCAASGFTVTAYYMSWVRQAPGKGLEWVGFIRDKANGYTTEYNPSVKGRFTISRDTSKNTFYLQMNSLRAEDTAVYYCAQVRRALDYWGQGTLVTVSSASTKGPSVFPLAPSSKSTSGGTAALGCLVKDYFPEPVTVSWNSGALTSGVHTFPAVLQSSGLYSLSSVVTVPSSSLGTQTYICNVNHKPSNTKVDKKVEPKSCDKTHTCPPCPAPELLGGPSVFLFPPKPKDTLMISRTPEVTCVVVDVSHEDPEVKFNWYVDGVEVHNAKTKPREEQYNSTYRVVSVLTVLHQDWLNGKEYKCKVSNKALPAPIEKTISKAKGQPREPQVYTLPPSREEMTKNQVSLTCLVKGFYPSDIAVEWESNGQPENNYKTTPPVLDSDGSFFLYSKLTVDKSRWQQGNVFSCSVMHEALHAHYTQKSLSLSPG
notes: produced in CHO cells; copies: 2 + 2
On to B4, for which the koff in [6] is 0.0467 s⁻¹; in experiment [7], 0.0962 s⁻¹. The on-rate constant (kon) turned out to be 884000 M⁻¹ s⁻¹ in experiment [6] and 1.7e+06 M⁻¹ s⁻¹ in experiment [7]. Moreover, the Kd was determined as 52.8 nM in experiment [8], 56.5 nM in experiment [9], 66.6 nM in [10] and 62.7 nM in experiment [11]. Further, the “binding relative to 9.1RF” value in [12] turned out to be 0.97 ratio; in experiment [13] it was 0.66 ratio; in [14], 0.45 ratio. Also, the “EC50 (read off the curve)” value in experiment [15] was around 6 ng/mL; in experiment [16], around 2000 ng/mL.

B5: 9.1RF N434W IgG (antibody)
light: DIQMTQSPSSLSASVGDRVTITCKSSQSLLYSSNQNNYLAWYQQKPGKAPKLLIYWASTRESGVPSRFSGSGSGTDFTLTISSLQPEDFATYYCQQYYTYPYTFGQGTKVEIKRTVAAPSVFIFPPSDEQLKSGTASVVCLLNNFYPREAKVQWKVDNALQSGNSQESVTEQDSKDSTYSLSSTLTLSKADYEKHKVYACEVTHQGLSSPVTKSFNRGEC
heavy: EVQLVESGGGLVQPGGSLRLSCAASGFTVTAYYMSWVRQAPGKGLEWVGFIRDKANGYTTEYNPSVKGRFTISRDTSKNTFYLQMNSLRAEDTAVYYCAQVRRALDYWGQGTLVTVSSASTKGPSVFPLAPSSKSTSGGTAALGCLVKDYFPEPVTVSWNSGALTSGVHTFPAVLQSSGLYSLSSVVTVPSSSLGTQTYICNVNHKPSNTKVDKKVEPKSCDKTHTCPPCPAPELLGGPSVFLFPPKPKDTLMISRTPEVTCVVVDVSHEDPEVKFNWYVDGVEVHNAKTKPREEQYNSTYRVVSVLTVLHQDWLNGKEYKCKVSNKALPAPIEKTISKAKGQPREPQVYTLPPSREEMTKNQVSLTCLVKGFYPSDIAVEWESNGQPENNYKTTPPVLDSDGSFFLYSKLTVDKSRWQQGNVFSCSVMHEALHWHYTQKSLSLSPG
notes: as for B4
As to B5, the koff in experiment [6] was 0.0102 s⁻¹; in [7], 0.0144 s⁻¹. The kon was 4.31e+06 M⁻¹ s⁻¹ in experiment [6] and 4.74e+06 M⁻¹ s⁻¹ in [7]. The Kd stood at 2.37 nM in experiment [8], 3.03 nM in experiment [9], 5.8 nM in [10] and 5.1 nM in experiment [11]. Moreover, the results for the “binding relative to 9.1RF” value in experiment [12], in [13] and in experiment [14] were 1 ratio, 0.64 ratio and 0.4 ratio, respectively. The “EC50 (read off the curve)” value in experiment [15] was around 6 ng/mL; in experiment [16] it was around 2000 ng/mL.

B6: 96 (Fab, V domains shown)
VH: EVQLVESGGGLVQPGGSLRLSCAASGFTINSSAIHWVRQAPGKGLEWVGYITPASGYTDYADSVKGRFTISADTSKNTAYLQMNSLRAEDTAVYYCAKGFHWYRGFFDYWGQGTLVTVSS
VL: DIQMTQSPSSLSASVGDRVTITCRASQDVSTAVAWYQQKPGKAPKLLIYSASFLYSGVPSRFSGSGSGTDFTLTISSLQPEDFATYYCQQSYTTPPTFGQGTKVEIKR
notes: also called V96; clone 96
On to B6, for which the binding result in experiment [17] is on record as “binds”; in [19], “no binding”. This molecule also displayed an IC50 in [18] of 200 nM. Moreover, the “Blocking to % (phage bound in the presence of BAFF)” value in experiment [20] amounted to 65%.
